Results taken from the supplement of paper PMC10724198.
± gives the standard deviation of the averaged measurements.

Experiments:
Saccharomyces cerevisiae [1] = assay: protein stability index of tFT-peptide fusion (C-terminal peptide) (PSI (0-1 scale)); higher = more stable (slower turnover); conditions: genetic background: wild type; temperature: 30 C
Saccharomyces cerevisiae [2] = assay: as above
Description: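 MPS profiling in S. cerevisiae of the tFT-X12 degron library: putative degron peptides plus stable controls, 12 aa, fused to the C-terminus of a sfGFP-mCherry timer. Cells are FACS-sorted into 8 mCherry/sfGFP bins and deep-sequenced. PSI runs from 0 (unstable) to 1 (stable). Backgrounds are wild type, das1Δ and doa10Δ at 30 °C, and wild type, das1Δ, cdc34-1 and cdc53-1 at 37 °C; 2-3 technical replicates each.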

[3] = genetic background: cdc34-1, temperature: 37 C
[4] = genetic background: cdc53-1, temperature: 37 C
[5] = genetic background: das1 deletion, temperature: 30 C
[6] = genetic background: das1 deletion, temperature: 37 C
[7] = genetic background: doa10 deletion, temperature: 30 C
[8] = genetic background: wild type, temperature: 30 C
[9] = genetic background: wild type, temperature: 37 C
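Note: PSI is a weighted mean of sequencing reads over stability bins, variants kept only with over 10 reads, mCherry proximal and sfGFP distal, peptide attached via GGGS linker.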

| Sequence | protein stability index (Saccharomyces cerevisiae [1]) | protein stability index (Saccharomyces cerevisiae [2]; [3]) | protein stability index (Saccharomyces cerevisiae [2]; [4]) | protein stability index (Saccharomyces cerevisiae [2]; [5]) | protein stability index (Saccharomyces cerevisiae [2]; [6]) | protein stability index (Saccharomyces cerevisiae [2]; [7]) | protein stability index (Saccharomyces cerevisiae [2]; [8]) | protein stability index (Saccharomyces cerevisiae [2]; [9]) |
| --- | --- | --- | --- | --- | --- | --- | --- | --- |
| VCWCVVVLEFGL | 0.313 ± 0.013 | 0.15 ± 0.049 | 0.367 ± 0.15 | 0.197 ± 0.031 | 0.363 ± 0.0062 | 0.168 ± 0.012 | 0.185 ± 0.029 | 0.267 ± 0.044 |
| FMSAGVSWIFFV | 0.343 ± 0.047 | 0.579 ± 0.021 | 0.7146 ± 0.0024 | 0.601 ± 0.021 | 0.7503 ± 0.0043 | 0.105 ± 0.013 | 0.13 ± 0.012 | 0.129 ± 0.011 |
| GPVRTEFWLYVW | 0.553 ± 0.18 | 0.651 ± 0.014 | 0.704 ± 0.022 | 0.55 ± 0.041 | 0.655 ± 0.011 | 0.57 ± 0.031 | 0.583 ± 0.049 | 0.626 ± 0.0066 |
| LFFGLCFVFFGF | 0.378 ± 0.046 | 0.384 ± 0.022 | 0.459 ± 0.0067 | 0.362 ± 0.032 | 0.48 ± 0.0058 | 0.407 ± 0.015 | 0.366 ± 0.013 | 0.4582 ± 0.0013 |
| LVSLCYAYPRYC | 0.387 ± 0.025 | 0.646 ± 0.016 | 0.685 ± 0.008 | 0.532 ± 0.016 | 0.7025 ± 0.0052 | 0.2577 ± 0.00032 | 0.279 ± 0.031 | 0.5826 ± 0.0029 |
| YFCVELSVFGFF | 0.4 ± 0.036 | 0.416 ± 0.018 | 0.546 ± 0.077 | 0.37 ± 0.046 | 0.48 ± 0.018 | 0.324 ± 0.02 | 0.358 ± 0.023 | 0.476 ± 0.033 |
| CGSLDLPHQCLL | 0.744 ± 0.059 | 0.7247 ± 0.0066 | 0.7844 ± 0.0062 | 0.677 ± 0.0093 | 0.7545 ± 0.0062 | 0.691 ± 0.048 | 0.693 ± 0.01 | 0.774 ± 0.0033 |
| GFFCVWSLLFFN | 0.283 ± 0.016 | 0.328 ± 0.045 | 0.395 ± 0.016 | 0.262 ± 0.045 | 0.449 ± 0.018 | 0.218 ± 0.031 | 0.187 ± 0.021 | 0.385 ± 0.005 |
| GREGETGSKAGR | 0.552 ± 0.17 | 0.675 ± 0.008 | 0.708 ± 0.013 | 0.64 ± 0.024 | 0.7282 ± 0.003 | 0.64 ± 0.027 | 0.669 ± 0.021 | 0.717 ± 0.015 |
| FLLASSRRICCS | 0.391 ± 0.0082 | 0.458 ± 0.0088 | 0.486 ± 0.029 | 0.365 ± 0.025 | 0.5347 ± 0.001 | 0.249 ± 0.015 | 0.269 ± 0.028 | 0.47 ± 0.013 |
| INKRDARIHLLM | 0.47 ± 0.0047 | 0.658 ± 0.012 | 0.6975 ± 0.0064 | 0.623 ± 0.023 | 0.701 ± 0.00084 | 0.32 ± 0.034 | 0.382 ± 0.029 | 0.547 ± 0.0084 |
| RLLRGDRMVICS | 0.433 ± 0.017 | 0.5515 ± 0.0014 | 0.565 ± 0.057 | 0.395 ± 0.039 | 0.615 ± 0.0066 | 0.3601 ± 0.0008 | 0.375 ± 0.022 | 0.582 ± 0.0066 |
| RVGWVVVLGCVG | 0.479 ± 0.0089 | 0.545 ± 0.04 | 0.548 ± 0.014 | 0.401 ± 0.027 | 0.578 ± 0.012 | 0.366 ± 0.009 | 0.397 ± 0.015 | 0.55 ± 0.014 |
| MFWKFVFRGFWF | 0.338 ± 0.018 | 0.694 ± 0.064 | 0.739 ± 0.008 | 0.641 ± 0.034 | 0.7791 ± 0.0044 | 0.221 ± 0.0052 | 0.259 ± 0.019 | 0.4748 ± 0.0044 |
| VAALLCWLHLYA | 0.498 ± 0.011 | 0.602 ± 0.018 | 0.639 ± 0.02 | 0.509 ± 0.019 | 0.622 ± 0.032 | 0.362 ± 0.007 | 0.409 ± 0.029 | 0.563 ± 0.0096 |
| FPRPLPVPLAVS | 0.25711 ± 0.00013 | 0.153 ± 0.023 | 0.217 ± 0.06 | 0.193 ± 0.033 | 0.2901 ± 0.0012 | 0.15456 ± 3.3e-05 | 0.181 ± 0.0047 | 0.221 ± 0.005 |
| CFATTCLRCKWV | 0.484 ± 0.014 | 0.692 ± 0.038 | 0.738 ± 0.035 | 0.645 ± 0.033 | 0.739 ± 0.028 | 0.425 ± 0.011 | 0.459 ± 0.022 | 0.631 ± 0.027 |
| EYGLLLTLLAYY | 0.362 ± 0.044 | 0.4526 ± 0.0018 | 0.508 ± 0.047 | 0.351 ± 0.026 | 0.549 ± 0.0092 | 0.2986 ± 0.0026 | 0.324 ± 0.021 | 0.5128 ± 0.0022 |
| VRGSPNVMWKSQ | 0.398 ± 0.035 | 0.675 ± 0.028 | 0.778 ± 0.01 | 0.647 ± 0.028 | 0.733 ± 0.028 | 0.194 ± 0.0042 | 0.238 ± 0.022 | 0.508 ± 0.033 |
| RKVWSLCWFVHL | 0.116 ± 0.0023 | 0.49 ± 0.071 | 0.617 ± 0.012 | 0.512 ± 0.012 | 0.65 ± 0.008 | 0.0695 ± 0.0078 | 0.0716 ± 0.015 | 0.0795 ± 0.0077 |

| Sequence | protein stability index (Saccharomyces cerevisiae [1]) | protein stability index (Saccharomyces cerevisiae [2]; [3]) | protein stability index (Saccharomyces cerevisiae [2]; [4]) | protein stability index (Saccharomyces cerevisiae [2]; [5]) | protein stability index (Saccharomyces cerevisiae [2]; [6]) | protein stability index (Saccharomyces cerevisiae [2]; [7]) | protein stability index (Saccharomyces cerevisiae [2]; [8]) | protein stability index (Saccharomyces cerevisiae [2]; [9]) |
| --- | --- | --- | --- | --- | --- | --- | --- | --- |
| PLRVFFLVAFCL | 0.383 ± 0.0073 | 0.451 ± 0.009 | 0.4799 ± 0.0037 | 0.372 ± 0.024 | 0.535 ± 0.015 | 0.318 ± 0.026 | 0.326 ± 0.05 | 0.471 ± 0.013 |
| RNCSFRRIQLAM | 0.362 ± 0.045 | 0.651 ± 0.063 | 0.699 ± 0.032 | 0.594 ± 0.0073 | 0.715 ± 0.0059 | 0.162 ± 0.0031 | 0.19 ± 0.022 | 0.298 ± 0.0095 |
| IDLVAFCTIFAL | 0.3975 ± 0.0032 | 0.4606 ± 0.0013 | 0.494 ± 0.032 | 0.363 ± 0.03 | 0.516 ± 0.01 | 0.295 ± 0.0078 | 0.33 ± 0.02 | 0.469 ± 0.018 |
| AGMLMCLYLFFV | 0.468 ± 0.027 | 0.562 ± 0.05 | 0.661 ± 0.047 | 0.467 ± 0.032 | 0.598 ± 0.022 | 0.428 ± 0.0066 | 0.449 ± 0.028 | 0.5673 ± 0.0029 |
| HRHCVSSYQKVS | 0.401 ± 0.054 | 0.662 ± 0.08 | 0.708 ± 0.013 | 0.648 ± 0.028 | 0.715 ± 0.0042 | 0.242 ± 0.0074 | 0.285 ± 0.027 | 0.556 ± 0.01 |
| LLVIAIKVPANS | 0.429 ± 0.024 | 0.489 ± 0.013 | 0.485 ± 0.0072 | 0.352 ± 0.025 | 0.507 ± 0.018 | 0.337 ± 0.036 | 0.358 ± 0.012 | 0.485 ± 0.00075 |
| FWESHVLPYRLL | 0.239 ± 0.045 | 0.654 ± 0.036 | 0.78233 ± 0.00013 | 0.644 ± 0.014 | 0.7799 ± 0.0022 | 0.19 ± 0.008 | 0.223 ± 0.018 | 0.465 ± 0.028 |
| LPLVFYCFLLHS | 0.4422 ± 0.002 | 0.49 ± 0.026 | 0.523 ± 0.0057 | 0.394 ± 0.029 | 0.518 ± 0.0063 | 0.386 ± 0.01 | 0.376 ± 0.035 | 0.509 ± 0.015 |
| ICTHPCLRLRLN | 0.165 ± 0.0032 | 0.517 ± 0.039 | 0.662 ± 0.028 | 0.634 ± 0.012 | 0.732 ± 0.019 | 0.0875 ± 0.018 | 0.0887 ± 0.016 | 0.144 ± 0.055 |
| WLFASCVFFWSS | 0.426 ± 0.0054 | 0.447 ± 0.045 | 0.502 ± 0.0068 | 0.386 ± 0.026 | 0.525 ± 0.015 | 0.355 ± 0.0086 | 0.37 ± 0.0092 | 0.483 ± 0.011 |
| FLIVLLVIFFGF | 0.324 ± 0.006 | 0.275 ± 0.0072 | 0.387 ± 0.019 | 0.276 ± 0.023 | 0.367 ± 0.023 | 0.275 ± 0.018 | 0.269 ± 0.04 | 0.357 ± 0.018 |
| LLASFWKFIVNI | 0.23 ± 0.016 | 0.613 ± 0.036 | 0.722 ± 0.015 | 0.641 ± 0.058 | 0.7 ± 0.073 | 0.139 ± 0.012 | 0.166 ± 0.012 | 0.166 ± 0.011 |
| IVWVSSFVCRSV | 0.43 ± 0.044 | 0.508 ± 0.082 | 0.574 ± 0.02 | 0.436 ± 0.0072 | 0.524 ± 0.0075 | 0.447 ± 0.015 | 0.4257 ± 0.003 | 0.516 ± 0.025 |
| SFLLVWCLLPEI | 0.415 ± 0.0064 | 0.364 ± 0.056 | 0.479 ± 0.096 | 0.309 ± 0.029 | 0.4729 ± 0.0046 | 0.2695 ± 0.0018 | 0.299 ± 0.035 | 0.451 ± 0.033 |
| VECPWFCLGVLA | 0.3848 ± 0.0018 | 0.336 ± 0.027 | 0.318 ± 0.018 | 0.278 ± 0.04 | 0.4359 ± 0.0013 | 0.2324 ± 0.001 | 0.284 ± 0.022 | 0.416 ± 0.0065 |
| LLSLPTTNLMAF | 0.484 ± 0.014 | 0.575 ± 0.029 | 0.61058 ± 0.00044 | 0.49 ± 0.026 | 0.615 ± 0.0099 | 0.356 ± 0.02 | 0.403 ± 0.018 | 0.56467 ± 0.00055 |
| FFCLVEVFVGVF | 0.2798 ± 0.0012 | 0.0707 ± 0.051 | 0.108 ± 0.023 | 0.115 ± 0.044 | 0.177 ± 0.0027 | 0.089 ± 0.018 | 0.0928 ± 0.033 | 0.107 ± 0.014 |
| GAVGRWGWVSFV |  | 0.699 ± 0.038 | 0.7732 ± 0.0059 | 0.653 ± 0.014 | 0.7883 ± 0.0033 | 0.337 ± 0.0076 | 0.357 ± 0.025 | 0.638 ± 0.052 |
| GVAVVWVGLGVT |  | 0.325 ± 0.011 | 0.445 ± 0.043 | 0.27 ± 0.018 | 0.474 ± 0.0068 | 0.227 ± 0.013 | 0.262 ± 0.017 | 0.4519 ± 0.0017 |
